Results on three substances are retold here after US20210179684A1.

The target in assay [1] is TrkA receptor on cells (NIH-TrkA). The assay is described as follows: flow cytometry on NIH-TrkA cells; 20 nM Biotin-NT3, fluorescent avidin; no competitor. On the technique in general: In flow cytometry, cells or beads pass a laser one at a time.
For assay [2], the target named is p75 neurotrophin receptor on cells (NIH-p75). The assay is described as follows: flow cytometry on NIH-p75 cells; 20 nM Biotin-NT3, fluorescent avidin; no competitor.
For assay [3], the target named is TrkC receptor on cells (NIH-TrkC). Briefly: flow cytometry on NIH-TrkC cells; 20 nM Biotin-NT3, fluorescent avidin; no competitor.
Assay [4] has as its target p75 neurotrophin receptor on cells (NIH-p75). Briefly: competition flow cytometry on NIH-p75 cells; 20 nM Biotin-NT3 tracer, cold competitor at 200 nM; value is the tracer binding left.
Assay [5] has as its target TrkC receptor on cells (NIH-TrkC). The assay is described as follows: competition flow cytometry on NIH-TrkC cells; 20 nM Biotin-NT3 tracer, cold competitor at 200 nM; value is the tracer binding left.
Assay [6] concerns the target p75 neurotrophin receptor on cells (NIH-p75). The assay is described as follows: competition flow cytometry on NIH-p75 cells; 20 nM Biotin-NT3 tracer, cold competitor at 200 nM; value is the tracer signal left.
Assay [7] addresses TrkA receptor on cells (NIH-TrkA). The assay is described as follows: competition flow cytometry on NIH-TrkA cells; 20 nM Biotin-NT3 tracer, cold competitor in 3-fold excess; value is the tracer signal left.
Assay [8] addresses TrkC receptor on cells (NIH-TrkC). Briefly: competition flow cytometry on NIH-TrkC cells; 20 nM Biotin-NT3 tracer, cold competitor at 200 nM; value is the tracer signal left.
For assay [9], the target named is TrkA receptor on cells (NIH-TrkA). Briefly: competition flow cytometry on NIH-TrkA cells; 20 nM Biotin-NT3 tracer, cold competitor in 3-fold excess; value is the tracer binding left.
Assay [10] deals with TrkC receptor on cells (NIH-TrkC). The assay is described as follows: cell-based or functional assay.

As for “Biotin-NT-3 (wild type NT-3 covalently linked to biotin, tracer) (from UniProt P18280 140-258) (ligand)”, the values for the MCF (mean channel fluorescence) in assay [1], in assay [2] and in assay [3] were 38, 76 and 93, respectively.

Turning to “NT-3 mutant (SEQ ID NO: 23), D15A/R114A/K115A (from UniProt P18280 140-258) (ligand)”, the % of maximal binding to p75 in [4] turned out to be 89%. Further, the % of maximal binding to TrkC in assay [5] turned out to be 13%. Besides, the MCF (mean channel fluorescence) was determined as 69 in [6] and 16 in assay [7].

For “Wild type NT-3 (neurotrophin 3, mature form), unlabeled (from UniProt P18280 140-258) (ligand)”, in [5], the % of maximal binding to TrkC turned out to be 18%. Besides, the MCF (mean channel fluorescence) in assay [8] is 25; in [7] it was 20. The substance also had a % of maximal binding to TrkA in assay [9] of 36%. The % survival at 0.1 nM in culture in assay [10] was determined as 34%.
